{"source": "paper PMC3775154", "assay_in_all_cases": "SPR", "key": {"[1]": {"target": "recombinant human FcγRIa (human) (UniProt P12314)", "sequence (P12314 16-374)": "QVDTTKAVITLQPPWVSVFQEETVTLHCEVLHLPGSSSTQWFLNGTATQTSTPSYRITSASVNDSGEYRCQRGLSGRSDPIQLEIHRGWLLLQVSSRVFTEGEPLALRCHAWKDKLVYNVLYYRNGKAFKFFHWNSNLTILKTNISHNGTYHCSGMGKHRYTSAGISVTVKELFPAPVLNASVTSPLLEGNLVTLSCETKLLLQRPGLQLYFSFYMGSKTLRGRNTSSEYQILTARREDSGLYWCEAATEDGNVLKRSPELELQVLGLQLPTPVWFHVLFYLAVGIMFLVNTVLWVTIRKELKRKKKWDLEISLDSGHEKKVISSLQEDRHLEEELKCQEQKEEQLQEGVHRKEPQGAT"}, "[2]": {"target": "recombinant human FcγRIIIa F158 (human) (UniProt P08637)"}, "[3]": {"target": "recombinant human FcγRIIIb (human) (UniProt O75015)", "sequence (O75015 17-200)": "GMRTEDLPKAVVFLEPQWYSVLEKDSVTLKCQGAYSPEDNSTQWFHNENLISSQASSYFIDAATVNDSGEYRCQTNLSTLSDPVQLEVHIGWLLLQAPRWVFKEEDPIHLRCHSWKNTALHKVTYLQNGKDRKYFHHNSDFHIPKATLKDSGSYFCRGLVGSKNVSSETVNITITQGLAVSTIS"}, "[4]": {"target": "recombinant human FcγRIIIa V158 (human)", "sequence (P08637 17-208)": "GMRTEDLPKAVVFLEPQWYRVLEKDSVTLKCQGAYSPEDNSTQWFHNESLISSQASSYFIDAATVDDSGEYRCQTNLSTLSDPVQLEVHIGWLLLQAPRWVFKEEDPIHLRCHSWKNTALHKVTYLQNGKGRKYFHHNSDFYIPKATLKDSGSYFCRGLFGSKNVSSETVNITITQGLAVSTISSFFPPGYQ"}, "[5]": {"target": "recombinant human FcRn (human) (UniProt P55899)", "sequence (P55899 24-297)": "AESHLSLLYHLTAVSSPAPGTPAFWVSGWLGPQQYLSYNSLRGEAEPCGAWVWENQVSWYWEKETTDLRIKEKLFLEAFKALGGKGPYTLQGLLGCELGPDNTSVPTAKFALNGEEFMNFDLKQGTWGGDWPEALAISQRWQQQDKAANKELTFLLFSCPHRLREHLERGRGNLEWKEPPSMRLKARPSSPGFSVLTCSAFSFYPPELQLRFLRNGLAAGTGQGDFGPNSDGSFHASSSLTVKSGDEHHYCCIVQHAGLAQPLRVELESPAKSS"}, "[6]": {"target": "recombinant human FcγRIIb (human) (UniProt P31994)", "sequence (P31994 43-310)": "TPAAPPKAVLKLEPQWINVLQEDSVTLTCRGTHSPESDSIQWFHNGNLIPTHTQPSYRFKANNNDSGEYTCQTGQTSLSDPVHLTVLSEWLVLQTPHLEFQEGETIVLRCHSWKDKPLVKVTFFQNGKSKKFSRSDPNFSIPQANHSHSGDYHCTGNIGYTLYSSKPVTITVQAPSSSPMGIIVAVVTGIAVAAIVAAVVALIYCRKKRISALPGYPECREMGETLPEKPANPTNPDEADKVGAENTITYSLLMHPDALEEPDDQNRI"}}, "data": [{"substance": "originator rituximab (antibody)", "values": [{"measurement": "Kd", "setting": "[1]", "value": "0.0104 to 0.0118", "unit": "µM"}, {"measurement": "Kd", "setting": "[2]", "value": "7.4 to 10.3", "unit": "µM"}, {"measurement": "Kd", "setting": "[3]", "value": "9.2 to 11.7", "unit": "µM"}, {"measurement": "Kd", "setting": "[4]", "value": "3.5 to 4.9", "unit": "µM"}, {"measurement": "Kd", "setting": "[5]", "value": "0.55 to 0.58", "unit": "µM"}, {"measurement": "Kd", "setting": "[6]", "value": "11.4 to 12.8", "unit": "µM"}]}, {"substance": "proposed biosimilar rituximab GP2013 (antibody)", "values": [{"measurement": "Kd", "setting": "[1]", "value": "0.0109 to 0.0124", "unit": "µM"}, {"measurement": "Kd", "setting": "[2]", "value": "8.5 to 10.9", "unit": "µM"}, {"measurement": "Kd", "setting": "[3]", "value": "9.9 to 12.4", "unit": "µM"}, {"measurement": "Kd", "setting": "[4]", "value": "4.2 to 5", "unit": "µM"}, {"measurement": "Kd", "setting": "[5]", "value": "0.54 to 0.58", "unit": "µM"}, {"measurement": "Kd", "setting": "[6]", "value": "11 to 12.7", "unit": "µM"}]}]}
